The test addresses GLUP (macrocyclic version of glup) (disulfide-cyclization and C-terminal amidation (results); head-to-side-chain cross-linking with 1,3-dibromomethylbenzene (methods)).

B1: TEAD4, purified recombinant protein (natural protein)
chain: PAPPWQGRSVASSKLWMLEFSAFLEQQQDPDTYNKHLFVHIGQSSPSYSDPYLEAVDIRQIYDKFPEKKGGLKDLFERGPSNAFFLVKFWADLNTNIEDEGSSFYGVSSQYESPENMIITCSTKVCSFGKQVVEKVETEYARYENGHYSYRIHRSPLCEYMINFIHKLKHLPEKYMMNSVLENFTILQVVTNRDTQETLLCIAYVFEVSASEHGAQHHIYRLVKE
B1: the Kd – broadly, the equilibrium constant for the complex coming apart – stood at 4.55 µM.

Source of the values: publication PMC11574045 (2024).
